Assay: soluble on expression in E. coli; label from the status in PepcDB or PDB records

MGSDKIHHHHHHMTDARDLTLPTGYIDLLGELKNRVRAARTRALRTVNTQLIELYWSIGQDVSAQQEHQGWGSGVIKRLADDLRAEFPEMKGFSARNVQYMTTFARAWNGGAIAQQPVAQLPWGHVTVLLDKLADQEKRDWYASEAVEYGWSRNVLMNMIMNKSLERTGSAPSNFAQHLVAQDSELAQQAAKDPYSFEFLGLSGEVAERDLEQALMDRITETLREMGPGFAFVGRQVHFDVGGDDFYIDLLFFHVEQLRYYVVELKTGKFQPEYAGKLNSYIALVDDRLRRETHADTVGILICGSKNDHTVRYSLGRATSPMAVASYTYDALPADVRDELPDADRLTAALDWTED
soluble on expression in E. coli: not soluble

MSEQAPAPKRGRRFKEQTPVQRALGLLVHREHSKKELNRKLQARGIEPEAAQAAVERLAGEGWQDDVRFAASVVRNRASSGYGPLHIRAELGTHGLDSDAVSAAMATFEGDWTENALDLIRRRFGEDGPVDLAQRRKAADLLARRGFDGNSIRLATRFDLED
soluble on expression in E. coli: soluble

MEGFVLAGTSSGVGKTVATLATLTALEDAGYQPQPAKAGPDFIDPSHHEALVDTPSRTLDPWLAGEDGMRRTYWRGTGDICVVEGVMGLYDGTKTSTAAVAEGLDLPVVLVVDAKAGMESVAATALGFAQYADRIGVDIEVAGILAQRAHGGRHADGIRDALPEDLTYFGRIPPMSDLEIPDRHLGLHMGSEAGLDRDALSTAAETIDIERLVETARAPPEVATTERNTGDSPADRRVAVAQDSAFCFIYPSVLERLRSEASVEPFSPVAGDSVPDADAIYLPGGYPELHGESLETGGTLDEIAVRAADGVPVYGECGGLMALSESLTTTDGDTYEMAGVLPADIEMQDRYQALDHVELEARADTVAATSGAHRRGHEFHYSAATLGSDASFAFDMVRGDGIDGEHDGLTEYSTIGTYCHCHGESGAFDRLLAVPSKDILEHHHHHH
soluble on expression in E. coli: not soluble

MARKNLIGISESPLAPEDGERPAVGRPIAGLAPAQRSTGLVGGITRSLSNITQKVERAEELERQLADGHAIVELDPELIDSSFIIDRLGVAPDVQAMLVQQIRDHGQQVPILVRPHPAESGRYQVAYGHRRLAALREIGIKVKAVIRNLNDEQLVISQGQENNARTDLSFIERALFATRLEDRGFSRDTIMSALGVDKAALSKMIAVVRRLPLDIIEAIGAAPGFGRRRWMELADLIDRDDRRPKALHFIETAAFKALESDQRFEKLFALLSLARKPSKAETWIAPDRSRPVRIRETDAETTLAFSKKAAPGFAEFVRQRLEALYLEYQRETGD
soluble on expression in E. coli: not soluble

PVERMRMRPWLEEQINSNTIPGLKWLNKEKKIFQIPWMHAARHGWDVEKDAPLFRNWAIHTGKHQPGIDKPDPKTWKANFRCAMNSLPDIEEVKDRSIKKGNNAFRVYRMLP
soluble on expression in E. coli: soluble

MGSDKIHHHHHHMTITAMLNPVWIQTFATVAAARSFTEAGRQLGLSQSSVSDHIRRLEQSVGRRLFVRDTHSLSMTPDGEALLVHARLILEALARAESQFTAPRLRGRVRLGTSEDLAQGPLSGVLSAFRNTHPDVEMEITIAMTSKLYELMDAGSLDLMLGKRRQGDRRGVPLFRGSLEWLARPGTVVDLSQPLPLILVHEPSVTRSVVLDTLAKAGCQWQVVCSSSSHSGCLAAARGGLGLTVRSRYLYGEGVAPPLNWEKLPALPEVEFISLSARRLSQPAETLLRLLQKSDLRAASSWTSA
soluble on expression in E. coli: not soluble

MLRKISLLLSICFLLHQNIAYGEDNQQSIYEKRMALYKETEQSSGIPWYYLAAMDQYERNIRSVRKDIPKKPDAIISLYFKPEIWAGPVNGNDTLPHTIALFGGLGLDGDKDGFANANNDRDLLHTAATILKKQGTSEERIKIMLWEYYRRAKTVDLITEYAQIYKHYGRINLEGNAFPLPIRSDHSYRSTFGAGRSFGGRRVHEGTDIFAGYGVPVRSTCYGIIETKGWNRLGGWRIGIRDLHNNYHYYAHLGGFSKEIQLGQIVEPGKVIGFVGSTGYGPPGTAGKFPPHLHFGMYKDNGYTEWAFDPYMHLSLWERKERANTKR
soluble on expression in E. coli: not soluble

MPTPKAFALLGPTAGGKTALALKIAETLPVEIISLDSALVYRDMDIGTAKPSASERAFVPHHLIDIIPPTESYSAARFVEDCTRLVGEISSRGRFALIVGGTMMYFRALTQGLNDLPEADACLRADLDEQKQMYGLDFLYRTLQKVDPETACRLKPNDSQRIGRALEVYYLTGKPMSTHLGSLTSHTLPFDLHTAALIPENRARLHENIALRFHLMLEQGFIGEVENLRRRYPGLTAYSPAIRCVGYRQAWKYLDGKTDFPAFVEKGIAATRQLAKRQLTWLRKTPLDCVADPFSDCTSCTRLIEAAKRFFGALEHHHHHH
soluble on expression in E. coli: soluble

SVGTAGISLLLLWYHKVRKPGIAMKLPEFLSLGNTFNSITLQDEIHDDQGTTVIFQERQLQILEKLNELLTNMEELKEEIRFLKEAIPKLEEYIQDELGGKITVHKISPQHRARKRRLPTIQSSATSNSSEEAESEGGYITANTDTEEQSFPVPKAFNTRVEELNLDVLLQKVDHLRMSESGKSESFELLRDHKEKFRDEIEFMWRFARAYGDMYELSTNTQEKKHYANIGKTLSERAINRAPMNGHCHLWYAVLCGYVSEFEGLQNKINYGHLFKEHLDIAIKLLPEEPFLYYLKGRYCYTVSKLSWIEKKMAATLFGKIPSSTVQEALHNFLKAEELCPGYSNPNYMYLAKCYTDLEENQNALKFCNLALLLPTVTKEDKEAQKEMQKIMTSLKR
soluble on expression in E. coli: soluble

MAHHHHHHMCAWNSAIHAYPTAIAPMLVRRPCHAAMNAYTAVASCATALRLSRSHLHAHMLLLLVLTRQRCNLFTLRSDTFLKAVVQMLFSPALLSTLRSAAGVSARSAPPALRQRVAAIA
soluble on expression in E. coli: not soluble

MNIDLTPYYAEPGEQPFSARRMAMPWRNHVPLSPEQIPAGWQTLKQQSVPARKRLLYLHIPFCATHCTFCGFYQNKLRDDSTATYTRYLLQELAMEADSPLHQSAPIHAVYFGGGTPTALAADELSQIIRAIRTSLPLAPDCEITVEGRAMDFDDERIDACLDAGANRFSIGIQTFDTRIRQRMARTSDKQQSIRFLERLCGRDRAAVVCDLMFGLPGQTPEIWREDLAIVSDLPLDGVDLYALNLLPTTPLAKAAENQRVALPDVVARRDFYRTGAAFLADSGWHQLSNSHWARTTRERNLYNLLIKQGADCLAMGSGAGGNINGQAYMMERSLERYYQQIDQGQKPIMMMTPASSTGPWQHQLQAGIEVGRIKLPQLTQHARELQPLLSQWHQAGLTCDDSTCLRLTNDGRFWANNLMQALQQIIPQLNAEEHAHLEHHHHHH
soluble on expression in E. coli: soluble

MSHAHKKHKENAPKSLNFYVITISTSRYEKLLKKEPIVDESGDIIKQLLIENGHKIIGYSLVPDDKIKILKAFTDALSIDEVDVIISTGGTGYSPTDITVETIRKLFDREIEGFSDVFRLVSFNDPEVKAAAYLTKASAGIIGKKIVYLLPGSPDAVKLALKELILPEVGHLVYLVRS
soluble on expression in E. coli: soluble

GPGSMVAKQSTAKGGSRYPPLTADQEKEVTELMELMRTKYDPLPQQLLALQRYNPQMEGTASEGAVAGTFFSPIRNYCYYFLISREWDRQKSFEMMQLSVSYREKNELDSRAELPSAICCRGWEQEKVRIALDKPARPTSQRLDRLSAGIEQYFTFGLHYWDKHGQPVVYLNLGSVDEPGLLKKLKQLANIGQTPNLVMWELVQHLIGVQEQLLFYQQMQYAAGTLKAEADDGLIRSATIVIDLNGLTYKMLWKPALDLFMNMLQTLFQYYPKCVHQILLVNSPPMVMFAYKIVRGALPHGVQRKVHIVNVADTPATMQSFIDAQYVPDYLGGLCHCEGGCVRGYDPHQRGTMKDSGTAKSDTRNVQSGDQDDEAGVVTEEITLKAGQELKRAFSLKRAESVVWEFVSANGRDVAFSTYFVPKKAAPSIDTSKLPTSMLESYVVSKASPSEGSDKYTASDDGIFVIVWDNKKSWFTAKYLQLNVFKQAATLTDGA
soluble on expression in E. coli: not soluble

MRRYLEHLMIKLSEKGVFLASNNEIIAEEHFTGEIKKEEAKKGTIAWSILSSHNTSGNMDKLKIKFDSLASHDITFVGIVQTAKASGMERFPLPYVLTNCHNSLCAVGGTINGDDHVFGLSAAQRYGGIFVPPHIAVIHQYMREMMAGGGKMILGSDSHTRYGALGTMAVGEGGGELVKQLLNDTWDIDYPGVVAVHLTGKPAPYVGPQDVALAIIGAVFKNGYVKNKVMEFVGPGVSALSTDFRNSVDVMTTETTCLSSVWQTDEEVHNWLALHGRGQDYCQLNPQPMAYYDGCISVDLSAIKPMIALPFHPSNVYEIDTLNQNLTDILREIEIESERVAHGKAKLSLLDKVENGRLKVQQGIIAGCSGGNYENVIAAANALRGQSCGNDTFSLAVYPSSQPVFMDLAKKGVVADLIGAGAIIRTAFCGPCFGAGDTPINNGLSIRHTTRNFPNREGSKPANGQMSAVALMDARSIAATAANGGYLTSASELDCWDNVPEYAFDVTPYKNRVYQGFVKGATQQPLIYGPNIKDWPELGALTDNIVLKVCSKILDEVTTTDELIPSGETSSYRSNPIGLAEFTLSRRDPGYVSRSKATAELENQRLAGNVSELTEVFARIKQIAGQEHIDPLQTEIGSMVYAVKPGDGSAREQAASCQRVIGGLANIAEEYATKRYRSNVINWGMLPLQMAEVPTFEVGDYIYIPGIKAALDNPGTTFKGYVIHEDAPVTEITLYMESLTAEEREIIKAGSLINFNKNRQM
soluble on expression in E. coli: not soluble

GMASVLSAATATDQGPVRENNQDACLADGILYAVADGFGARGHHASATALKTLSAGFAAAPDRDGLLEAVQQANLRVFELLGDEPTVSGTTLTAVAVFEPGQGGPLVVNIGDSPLYRIRDGHMEQLTDDHSVAGELVRMGEITRHEARWHPQRHLLTRALGIGPHIGPDVFGIDCGPGDRLLISSDGLFAAADEALIVDAATSPDPQVAVRRLVEVANDAGGSDNTTVVVIDLG
soluble on expression in E. coli: soluble

MKLRASVLIGATILCLILSACSNYAKKVVKQKNHVYTPVYNELIEKYSEIPLNDKLKDTPFMVQVKLPNYKDYLLDNKQVVLTFKLVHHSKKITLIGDANKILQYKNYFQANGARSDIDFYLQPTLNQKGVVMIASNYNDNPNSKEKPQTFDVLQGSQPMLGANTKNLHGYDVSGANNKQVINEVAREKAQLEKINQYYKTLLQDKEQEYTTRKNNQREILETLSNRAGYQMRQNVISSEIFKNGNLNMQAKEEEVREKLQEERENEYLRNQIRSLLSGK
soluble on expression in E. coli: not soluble

SQKPCKENEGKPKCSVPKREEKRPYGEFERQQTEGNFRQRLLQSLEEFKEDIDYRHFKDEEMTREGDEMERCLEEIRGLRKKFRALHSNHRHSRDRPYPI
soluble on expression in E. coli: soluble

MTYDPKTAVKQDSFSGKEPFNILLLGTDTGAFGRKEVRGNSDTMILVTVNPAKKKLSLMSIPRDTMARMIGTDNFSVHKINAAYNIGGAKMAMRTTSKVLNVPIKYYISMNMGGMRKIVDGVGGVTVTPPLTFTYDGYTFTKGKTVHLNGSQALAYSRMRYDDPKGDYGRQLRQREVIMSVLEHALSFNTLKNLDSILGSVSTSLRTNLTFDSMVKISKNYRKCTNNMSSDYLHGVGAMIGDASYQVMSDRELQRTSNIVRNDLGLDSMDIDNNETYQNSMNSQFDWNSGDSNQVYYIYDPYTDELWNGDRAYLEHHHHHH
soluble on expression in E. coli: soluble

MAHHHHHHMNKFENFYKVPISYKNRKNEIYKYDNLEYNKMKYGMPEYYRCPYYMHENRNLYNTESCYTPNINVGRNSFYGKTLDPNDKICEENDSVYNILEEDHKEESFKKIECMNKEDDRKKIYNKVEKNDDENIDNKKHNYCEKYEEVYPKDRSSIKIIYNDVDQQIDHNLYDDENEIVCDNEIKKRKKRDRKVFMGKYFFSDIINTIIYPCTNKSLQKYQYGSVENMDYSLYNDIQKGQKIQKVDKIKNKKAPQIIVKF
soluble on expression in E. coli: not soluble

MPFKPVEHPKCPKCGKSVYAAEEMSAGGYKWHKFCFKCNMCNKLLDSCTVAPHEAELYCKQCHGRKFGPKGVGFGLGAGCLTTDSGEKFGGSKQT
soluble on expression in E. coli: not soluble

From the DeepSol protein solubility set
